The nature of this data set: total protein half-life in vivo (active degradation + dilution); higher = more stable protein.
Where [1] appears, read: E. coli NCM3722 delta-clpP delta-lon delta-hslV, growth: N-lim chemostat, doubling time 6 h.
[2] abbreviates: E. coli NCM3722 delta-clpP, growth: N-lim chemostat, doubling time 6 h.
[3] abbreviates: E. coli NCM3722 delta-smpB, growth: N-lim chemostat, doubling time 6 h.
Setting [4] is: wild type E. coli NCM3722, growth: C-lim chemostat, doubling time 6 h.
Setting [5] is: wild type E. coli NCM3722, growth: N-lim chemostat, doubling time 6 h.
[6] abbreviates: wild type E. coli NCM3722, growth: N-lim chemostat, doubling time 12 h.
Where [7] appears, read: wild type E. coli NCM3722, growth: P-lim chemostat, doubling time 6 h.
[8] abbreviates: wild type E. coli NCM3722, growth: P-lim chemostat, doubling time 12 h.
The mark [9] stands for this setting: E. coli NCM3722 delta-hslV, growth: N-lim chemostat, doubling time 6 h.
Setting [10] is: E. coli NCM3722 delta-lon, growth: N-lim chemostat, doubling time 6 h.
The mark [11] stands for this setting: wild type E. coli NCM3722, growth: C-lim chemostat, doubling time 3 h.
The mark [12] stands for this setting: wild type E. coli NCM3722, growth: C-lim chemostat, doubling time 12 h.

± gives the standard deviation of the averaged measurements.

Consider “MLYIFRLIITVIYSILVCVFGSIYCLFSPRNPKHVATFGHMFGRLAPLFGLKVECRKPTDAESYGNAIYIANHQNNYDMVTASNIVQPPTVTVGKKSLLWIPFFGQLYWLTGNLLIDRNNRTKAHGTIAEVVNHFKKRRISIWMFPEGTRSRGRGLLPFKTGAFHAAIAAGVPIIPVCVSTTSNKINLNRLHNGLVIVEMLPPIDVSQYGKDQVRELAAHCRSIMEQKIAELDKEVAEREAAGKV”, for which the “total protein half-life in vivo” value under setting [1] came to 5.89 h; the “total protein half-life in vivo” value under setting [2] was 6.07 ± 0.43 h; the “total protein half-life in vivo” value under setting [3] was 4.95 h; the “total protein half-life in vivo” value under setting [4] is 6.42 h; the “total protein half-life in vivo” value under setting [5] was 5.93 ± 0.29 h; the “total protein half-life in vivo” value under setting [6] was 12.2 ± 1.3 h. For the same sequence, the “total protein half-life in vivo” value by setting is: under setting [7], 6.42 ± 1.2 h; under setting [8], 11.8 ± 0.39 h.

For “MSDDNSHSSDTISNKKGFFSLLLSQLFHGEPKNRDELLALIRDSGQNDLIDEDTRDMLEGVMDIADQRVRDIMIPRSQMITLKRNQTLDECLDVIIESAHSRFPVISEDKDHIEGILMAKDLLPFMRSDAEAFSMDKVLRQAVVVPESKRVDRMLKEFRSQRYHMAIVIDEFGGVSGLVTIEDILELIVGEIEDEYDEEDDIDFRQLSRHTWTVRALASIEDFNEAFGTHFSDEEVDTIGGLVMQAFGHLPARGETIDIDGYQFKVAMADSRRIIQVHVKIPDDSPQPKLDE [P0AE78]”, the “total protein half-life in vivo” value reads like this: under setting [1], 5.6 ± 0.81 h; under setting [2], 4.83 ± 0.09 h; under setting [9], 5.25 ± 0.99 h; under setting [10], 5.54 ± 0.81 h; under setting [3], 4.73 ± 0.13 h; under setting [11], 2.91 ± 0.18 h. The “total protein half-life in vivo” value was 5.83 ± 0.67 h under setting [4]; 10 ± 0.62 h under setting [12]; 4.6 ± 0.091 h under setting [5]; 8.26 ± 0.13 h under setting [6]; 5.28 ± 0.17 h under setting [7]; 9.77 ± 1.1 h under setting [8].

“MDKIEVRGARTHNLKNINLVIPRDKLIVVTGLSGSGKSSLAFDTLYAEGQRRYVESLSAYARQFLSLMEKPDVDHIEGLSPAISIEQKSTSHNPRSTVGTITEIHDYLRLLFARVGEPRCPDHDVPLAAQTVSQMVDNVLSQPEGKRLMLLAPIIKERKGEHTKTLENLASQGYIRARIDGEVCDLSDPPKLELQKKHTIEVVVDRFKVRDDLTQRLAESFETALELSGGTAVVADMDDPKAEELLFSANFACPICGYSMRELEPRLFSFNNPAGACPTCDGLGVQQYFDPDRVIQNPELSLAGGAIRGWDRRNFYYFQMLKSLADHYKFDVEAPWGSLSANVHKVVLYGSGKENIEFKYMNDRGDTSIRRHPFEGVLHNMERRYKETESSAVREELAKFISNRPCASCEGTRLRREARHVYVENTPLPAISDMSIGHAMEFFNNLKLAGQRAKIAEKILKEIGDRLKFLVNVGLNYLTLSRSAETLSGGEAQRIRLASQIGAGLVGVMYVLDEPSIGLHQRDNERLLGTLIHLRDLGNTVIVVEHDEDAIRAADHVIDIGPGAGVHGGEVVAEGPLEAIMAVPESLTGQYMSGKRKIEVPKKRVPANPEKVLKLTGARGNNLKDVTLTLPVGLFTCITGVSGSGKSTLINDTLFPIAQRQLNGATIAEPAPYRDIQGLEHFDKVIDIDQSPIGRTPRSNPATYTGVFTPVRELFAGVPESRARGYTPGRFSFNVRGGRCEACQGDGVIKVEMHFLPDIYVPCDQCKGKRYNRETLEIKYKGKTIHEVLDMTIEEAREFFDAVPALARKLQTLMDVGLTYIRLGQSATTLSGGEAQRVKLARELSKRGTGQTLYILDEPTTGLHFADIQQLLDVLHKLRDQGNTIVVIEHNLDVIKTADWIVDLGPEGGSGGGEILVSGTPETVAECEASHTARFLKPML [P0A698]”: the “total protein half-life in vivo” value by setting is: under setting [1], 6.85 ± 0.08 h; under setting [2], 6.52 ± 0.27 h; under setting [9], 6.32 ± 0.14 h; under setting [10], 6.4 ± 0.084 h; under setting [3], 5.66 ± 0.51 h; under setting [11], 3.21 ± 0.095 h. For the same sequence, the “total protein half-life in vivo” value amounted to 6.19 ± 0.7 h under setting [4]; 12.1 ± 0.6 h under setting [12]; 6.24 ± 0.3 h under setting [5]; 12.7 ± 0.13 h under setting [6]; 6.273 ± 0.06 h under setting [7]; 13.6 ± 0.84 h under setting [8].

Take “MLNTLIVGASGYAGAELVTYVNRHPHMNITALTVSAQSNDAGKLISDLHPQLKGIVDLPLQPMSDISEFSPGVDVVFLATAHEVSHDLAPQFLEAGCVVFDLSGAFRVNDATFYEKYYGFTHQYPELLEQAAYGLAEWCGNKLKEANLIAVPGCYPTAAQLALKPLIDADLLDLNQWPVINATSGVSGAGRKAAISNSFCEVSLQPYGVFTHRHQPEIATHLGADVIFTPHLGNFPRGILETITCRLKSGVTQAQVAQVLQQAYAHKPLVRLYDKGVPALKNVVGLPFCDIGFAVQGEHLIIVATEDNLLKGAAAQAVQCANIRFGYAETQSLI”: the “total protein half-life in vivo” value is, setting by setting: under setting [1], 3.94 ± 0.2 h; under setting [2], over 8 h; under setting [9], 3.34 ± 0.5 h; under setting [10], 4.24 ± 0.74 h; under setting [3], 3.24 ± 0.057 h; under setting [11], 2.67 ± 0.42 h. The “total protein half-life in vivo” value is, setting by setting: under setting [4], 5.7 ± 1.4 h; under setting [12], 9.58 ± 0.43 h; under setting [5], 3.24 h; under setting [6], 5.58 h; under setting [7], 5.06 ± 0.19 h; under setting [8], 9.57 ± 0.58 h.

Take “MIISEMQRKLATWAATDPSLRIQRLLRLITQPEWLAEAARITLSSKGAHTPGVDGVNKTMLQARLAVELQILRDELLSGHYQPLPARRVYIPKSNGKLRPLGIPALRDRIVQRAMLMAMEPIWESDFHTLSYGFRPERSVHHAIRTVKLQLTDCGETRGRWVIEGDLSSYFDTVHHRLLMKAVRRRISDARFMTLLWKTIKAGHIDVGLFRAASEGVPQGGVISPLLSNIMLNEFDQYLHERYLSGKARKDRWYWNNSIQRGRSTAVRENWQWKPAVAYCRYADDFVLIVKGTKAQVEAIREECRGVLEGSLKLRLNMDKTKIPHVNDGFIFLGHRLIRKRSRYGEMRVVSTIPQEKARNFAASLTALLWKVRISGEILLG”: the “total protein half-life in vivo” value under setting [1] stood at 4.72 ± 0.55 h.

Regarding “MRILLSNDDGVHAPGIQTLAKALREFADVQVVAPDRNRSGASNSLTLESSLRTFTFENGDIAVQMGTPTDCVYLGVNALMRPRPDIVVSGINAGPNLGDDVIYSGTVAAAMEGRHLGFPALAVSLDGHKHYDTAAAVTCSILRALCKEPLRTGRILNINVPDLPLDQIKGIRVTRCGTRHPADQVIPQQDPRGNTLYWIGPPGGKCDAGPGTDFAAVDEGYVSITPLHVDLTAHSAQDVVSDWLNSVGVGTQW [P0A840]”, the “total protein half-life in vivo” value worked out at 4.833 ± 0.047 h under setting [1]; 4.03 h under setting [2]; 4.1 ± 0.25 h under setting [9]; 3.71 ± 0.83 h under setting [3]; 3.04 ± 0.33 h under setting [11]; 6.21 ± 0.81 h under setting [4]. The “total protein half-life in vivo” value under setting [12] is 8.36 ± 0.48 h, the “total protein half-life in vivo” value under setting [5] stood at 4.5 h and the “total protein half-life in vivo” value under setting [6] worked out at 5.84 ± 1.5 h.

Values taken from the supplement of paper PMC11246515.
